The chains are these.
B1: TRIM29 (parent)
chain: FAEKGELRKSIFSESRKPTVSIME
B2: DLC1 (parent)
chain: NDDSADYQHFLQDCVDGLFKEVKE
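Further: lentivirally expressed fusions sorted by FACS into six bins by GFP to DsRed ratio, PSI derived from sequencing read proportions per bin multiplied by bin number.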

In one series the parent is B1. Nature of the series: protein stability index of a GFP-peptide fusion (GPS, HEK-293T) (PSI 1-6); higher = more stable. The following applies: c terminus: a fixed tail appended.
Take FAEKGELRKSIFSESRKPGVSIME [T19G]: the protein stability index was 1.61.

FAEKGELRKSIFSESRKPDVSIME [T19D]: the protein stability index was 2.15.

For FAEKGELRKSIFSESTKPTVSIME [R16T], the protein stability index worked out at 1.6.

As for FAEKGELRKSIFSESLKPTVSIME [R16L], the protein stability index amounted to 1.99.

With FAEKGELRKSIFSESFKPTVSIME [R16F], the protein stability index worked out at 1.96.

Consider FAEKGELRKSIFSESGKPTVSIME [R16G], for which the protein stability index was determined as 1.99.

Regarding FAEKGELRKSIFSESMKPTVSIME [R16M], the protein stability index is 2.02.

As for FAEKGELRKSIFSESQKPTVSIME [R16Q], the protein stability index stood at 1.6.

With FAEKGELRKSIFSESVKPTVSIME [R16V], the protein stability index turned out to be 2.18.

Take FAEKGELRKSIFSESAKPTVSIME [R16A]: the protein stability index was found to be 1.49.

As for FAEKGELRKSIFSESIKPTVSIME [R16I], the protein stability index worked out at 1.78.

Consider FAEKGELRKSIFSESHKPTVSIME [R16H], for which the protein stability index worked out at 1.74.

For the variant FAEKGELRKSIFSESEKPTVSIME [R16E], the protein stability index was found to be 1.3.

As for FAEKGELRKSIFSESYKPTVSIME [R16Y], the protein stability index was determined as 1.4.

FAEKGELRKSIFSESSKPTVSIME [R16S]: the protein stability index turned out to be 1.8.

As for FAEKGELRKSIFSESKKPTVSIME [R16K], the protein stability index is 2.35.

For FAEKGELRKSIFSESDKPTVSIME [R16D], the protein stability index is 2.04.

Turning to FAEKGELRKSIFSESNKPTVSIME [R16N], the protein stability index was determined as 1.5.

Regarding FAEKGELRKSIFSESCKPTVSIME [R16C], the protein stability index is 1.69.

Regarding FAEKGELRKSIFSESWKPTVSIME [R16W], the protein stability index worked out at 2.29.

In the case of FAEKGELRKSIFSESPKPTVSIME [R16P], the protein stability index stood at 1.96.

Turning to FAEKGELRKSIFSESRKPTVSIVE [M23V], the protein stability index amounted to 2.01.

With FAEKGELRKSIFSESRKPTVSIKE [M23K], the protein stability index was 1.66.

As for FAEKGELRKSIFSESRKPTVSIDE [M23D], the protein stability index is 1.92.

FAEKGELRKSIFSESRKPTVSIQE [M23Q]: the protein stability index worked out at 2.47.

As to FAEKGELRKSIFSESRKPTVSIRE [M23R], the protein stability index stood at 2.22.

For FAEKGELRKSIFSESRKPTVSITE [M23T], the protein stability index was 2.22.

Turning to FAEKGELRKSIFSESRKPTVSIHE [M23H], the protein stability index turned out to be 2.56.

Turning to FAEKGELRKSIFSESRKPTVSIYE [M23Y], the protein stability index is 2.2.

Regarding FAEKGELRKSIFSESRKPTVSIAE [M23A], the protein stability index was found to be 1.47.

Turning to FAEKGELRKSIFSESRKPTVSINE [M23N], the protein stability index is 2.38.

For FAEKGELRKSIFSESRKPTVSIEE [M23E], the protein stability index is 1.56.

Regarding FAEKGELRKSIFSESRKPTVSIFE [M23F], the protein stability index was 1.6.

In the case of FAEKGELRKSIFSESRKPTVSISE [M23S], the protein stability index amounted to 1.58.

As to FAEKGELRKSIFSESRKPTVSICE [M23C], the protein stability index is 2.16.

On to FAEKGELRKSIFSESRKPTVSIGE [M23G], for which the protein stability index came to 1.57.

With FAEKGELRKSIFSESRKPTVSIIE [M23I], the protein stability index was 1.49.

As for FAEKGELRKSIFSESRKPTVSILE [M23L], the protein stability index worked out at 1.71.

Turning to FAEKGELRKSIFSESRKPTVSIWE [M23W], the protein stability index amounted to 2.21.

On to FAEKGELRKSIFSESRKPTVSIPE [M23P], for which the protein stability index stood at 1.84.

For FAEKGELRKSIFSESRKPTVWIME [S21W], the protein stability index amounted to 2.55.

Turning to FAEKGELRKSIFSESRKPTVVIME [S21V], the protein stability index is 2.17.

For the variant FAEKGELRKSIFSESRKPTVIIME [S21I], the protein stability index came out at 3.09.

For the variant FAEKGELRKSIFSESRKPTVCIME [S21C], the protein stability index is 1.49.

Regarding FAEKGELRKSIFSESRKPTVFIME [S21F], the protein stability index stood at 2.61.

Consider FAEKGELRKSIFSESRKPTVLIME [S21L], for which the protein stability index amounted to 2.05.

In the case of FAEKGELRKSIFSESRKPTVMIME [S21M], the protein stability index is 2.61.

With FAEKGELRKSIFSESRKPTVTIME [S21T], the protein stability index came out at 1.76.

As to FAEKGELRKSIFSESRKPTVPIME [S21P], the protein stability index stood at 1.47.

As for FAEKGELRKSIFSESRKPTVAIME [S21A], the protein stability index was 2.12.

For the variant FAEKGELRKSIFSESRKPTVRIME [S21R], the protein stability index turned out to be 2.19.

As to FAEKGELRKSIFSESRKPTVHIME [S21H], the protein stability index came out at 1.31.

For the variant FAEKGELRKSIFSESRKPTVQIME [S21Q], the protein stability index is 3.18.

For FAEKGELRKSIFSESRKPTVKIME [S21K], the protein stability index is 2.7.

With FAEKGELRKSIFSESRKPTVYIME [S21Y], the protein stability index is 2.15.

Take FAEKGELRKSIFSESRKPTVNIME [S21N]: the protein stability index was 2.11.

Take FAEKGELRKSIFSESRKPTVGIME [S21G]: the protein stability index was determined as 1.95.

For FAEKGELRKSIFSESRKPTVDIME [S21D], the protein stability index is 1.65.

Regarding FAEKGELRKSIFSESRKPTVEIME [S21E], the protein stability index was 1.76.

As for FAEKGELRKSIFSESRKPTVSIMP [E24P], the protein stability index stood at 2.23.

As for FAEKGELRKSIFSESRKPTVSIMM [E24M], the protein stability index was determined as 2.73.

Take FAEKGELRKSIFSESRKPTVSIMA [E24A]: the protein stability index came to 2.12.

On to FAEKGELRKSIFSESRKPTVSIMH [E24H], for which the protein stability index turned out to be 3.14.

Take FAEKGELRKSIFSESRKPTVSIMI [E24I]: the protein stability index stood at 2.79.

As to FAEKGELRKSIFSESRKPTVSIMQ [E24Q], the protein stability index was found to be 1.95.

As for FAEKGELRKSIFSESRKPTVSIMY [E24Y], the protein stability index was 2.54.

Regarding FAEKGELRKSIFSESRKPTVSIMW [E24W], the protein stability index came to 2.17.

Take FAEKGELRKSIFSESRKPTVSIMG [E24G]: the protein stability index was 2.2.

With FAEKGELRKSIFSESRKPTVSIMK [E24K], the protein stability index was 1.76.

In the case of FAEKGELRKSIFSESRKPTVSIMN [E24N], the protein stability index came out at 1.36.

In the case of FAEKGELRKSIFSESRKPTVSIML [E24L], the protein stability index was 2.98.

In the case of FAEKGELRKSIFSESRKPTVSIMC [E24C], the protein stability index was 2.07.

With FAEKGELRKSIFSESRKPTVSIMR [E24R], the protein stability index amounted to 1.3.

Consider FAEKGELRKSIFSESRKPTVSIMT [E24T], for which the protein stability index was 1.88.

As to FAEKGELRKSIFSESRKPTVSIMS [E24S], the protein stability index stood at 1.65.

Take FAEKGELRKSIFSESRKPTVSIMF [E24F]: the protein stability index came to 2.22.

Turning to FAEKGELRKSIFSESRKPTVSIMV [E24V], the protein stability index was 2.33.

As for FAEKGELRKSIFSESRKPTVSIMD [E24D], the protein stability index was 2.41.

Another series covers variants of B2. The series is described as above. The note with it: c terminus: a fixed tail appended.
With NDDSADYQHFLQDCVDGLFKMVKE [E21M], the protein stability index was 2.24.

With NDDSADYQTFLQDCVDGLFKEVKE [H9T], the protein stability index was found to be 2.25.

For NDDSADYQHFLQDCVDGLHKEVKE [F19H], the protein stability index was found to be 4.82.

Turning to NDFSADYQHFLQDCVDGLFKEVKE [D3F], the protein stability index was determined as 3.3.

For the variant NDISADYQHFLQDCVDGLFKEVKE [D3I], the protein stability index amounted to 2.19.

In the case of NDDSADYQHFLQDCVDGLFKEVVE [K23V], the protein stability index stood at 2.05.

As for NVDSADYQHFLQDCVDGLFKEVKE [D2V], the protein stability index is 1.96.

On to NDDSADYQHFLQDCQDGLFKEVKE [V15Q], for which the protein stability index was 4.74.

For the variant NDDSADYQHFLQDCSDGLFKEVKE [V15S], the protein stability index was 4.71.

On to NDDSADYYHFLQDCVDGLFKEVKE [Q8Y], for which the protein stability index stood at 1.56.

Regarding NDDSADYMHFLQDCVDGLFKEVKE [Q8M], the protein stability index came to 1.43.

For NDDSADYQHFLQDCVDGLFAEVKE [K20A], the protein stability index was 3.35.

In the case of NDDSADYQHFLQDCVDGLFSEVKE [K20S], the protein stability index is 4.74.

In the case of NDDSADYQHFLQDMVDGLFKEVKE [C14M], the protein stability index is 3.63.

As for NDDSADYQHFLQDDVDGLFKEVKE [C14D], the protein stability index is 5.03.

Turning to NDDSADYQHFLQDCVDGLFKEHKE [V22H], the protein stability index was determined as 5.31.

(Values after the supplement of paper PMC10567573.)
